One assay addresses calmodulin (CaM). Description: FL-CaM fluorescence polarisation. The following applies: reference: αCaMKII with Ca2+/FL-CaM, no ATP; sites T286. For orientation: Polarisation of emitted light reports the rotation of a fluorescent probe.
The target in assay [1] is phospho-Thr^286-αCaMKII (mouse) (UniProt P11798). Kind of assay: fluorescence polarisation.
Sequence of phospho-Thr^286-αCaMKII (mouse) (P11798 whole entry): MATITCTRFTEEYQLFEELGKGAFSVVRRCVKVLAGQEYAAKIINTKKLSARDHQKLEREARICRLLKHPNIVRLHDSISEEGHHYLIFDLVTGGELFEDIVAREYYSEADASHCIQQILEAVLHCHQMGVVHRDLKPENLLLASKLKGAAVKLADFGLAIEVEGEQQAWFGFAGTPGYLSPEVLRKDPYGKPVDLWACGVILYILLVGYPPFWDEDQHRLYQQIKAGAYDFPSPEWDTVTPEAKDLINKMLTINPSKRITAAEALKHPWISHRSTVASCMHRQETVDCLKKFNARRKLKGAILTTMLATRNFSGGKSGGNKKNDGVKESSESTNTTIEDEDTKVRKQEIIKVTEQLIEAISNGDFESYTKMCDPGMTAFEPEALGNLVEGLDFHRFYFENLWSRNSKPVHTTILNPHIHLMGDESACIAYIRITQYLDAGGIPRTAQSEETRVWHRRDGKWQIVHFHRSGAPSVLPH

Sequence of αCaMKII (P11798 whole entry, looked up, change not shown): as the sequence (P11798 whole entry) above

Regarding “αCaMKII (from UniProt P11798) αCaMKII with Ca2+/FL-CaM and ATP (autophosphorylated)”, the “other: fluorescence polarisation of FL-CaM” value in the assay with calmodulin (CaM) is reported as “stronger; reference 0.33”. In turn, “Lys^75-FL-calmodulin (FL-CaM) (from UniProt P0DP23 1-149) (natural protein)” returned a rate constant of CaM dissociation (polarization, slow phase) after EGTA in assay [1] of 0.02 s⁻¹.

The record behind these values is publication PMC2788865.
